According to article PMC9253517 (The Journal of Experimental Medicine, 2022):

B1: JN108 (antibody, V domains shown)
VH: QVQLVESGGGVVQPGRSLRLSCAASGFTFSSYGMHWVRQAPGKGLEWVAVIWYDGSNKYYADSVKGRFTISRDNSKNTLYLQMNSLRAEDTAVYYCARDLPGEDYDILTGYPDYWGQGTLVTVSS
VL: QSALTQPASVSGSLGQSITISCTGTSSDVGSYNLVSWYQQHPGKVPKLMIYEANKRASGVSDRFSGSKTDNTASLTISGLQAEDEADYYCCSYAGSRTHVIFGGGTKLTV
B2: JN138 (antibody, V domains shown)
VH: QVQLVQSGTEVKKPGASVKVSCKASGYTFTSYYMHWVRQAPGQGLEWMGIINPSGGSTSYAQKFQGRVTMTRDTSTSTVYMELSSLRSEDTAVYYCARAELGSGSYPYYGMDVWGKGTTVTVSS
VL: SYELTQPPSVSVSPGQTARITCSGDALPKQYAYWYQQKPGQAPVLVIYKDSERPSGIPERFSGSSSGTTVTFTISGVQAEDEADYYCQSADSSGSYVVFGGGTKLTVL
B3: JN139 (antibody, V domains shown)
VH: QVQLQESGPGLVKPSETLSLTCTVSGGSISNYFWSWIRQPPGQGLEWIGYIFYNGDTTYNPSLKSRVTISVDTSKNQFSLKLSSVTAADTAVYYCARDYYDSRGVFHGGFDSWGQGILVTVSS
VL: DIVMTQSPDSLAVSLGERATINCKSSQSVLYSSNSRNYLAWYQQRPGQPPKRLIYWASTRESGVPDRFSGSGSGTDFTLTISSLQAEDVAVYYCQQYYTNPPWTFGQGTKVEIK
B4: JN232 (antibody, V domains shown)
VH: EVQLVQSGAEVKKPGESLNISCKGSGYSFTNYWIGWVRQMPGKGLEWMGIIYPGDSDTRYSPSFQGQVTISADKSISTVFLQWSSLKASDTAMYYCVRHDVLAVLMGGVTFDIWGQGTMVTVSS
VL: EIVLTQSPGTLSLSPGERATLSCRASQSISSSYLAWYQQKSGQAPRLLIYGASSRATGIPDRFSGSGSGTDFTLTISRLEPEDFAVYYCQQYGGSPMYTFGQGTKLEIK
B5: JN141 (antibody, V domains shown)
VH: EVQLVESGGGLVQPGGSLRLSCAASGFTFSSYSMNWVRQAPGKGLEWVSYISSSSSTISYADSVKGRFTISRDNAKNSLYLQMNSLRAEDTAVYYCASGKGVGFDYWGQGTLVTVSS
VL: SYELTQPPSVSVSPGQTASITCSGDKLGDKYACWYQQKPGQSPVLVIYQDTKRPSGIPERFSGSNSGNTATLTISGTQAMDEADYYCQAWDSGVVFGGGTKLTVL
B6: JN227 (antibody, V domains shown)
VH: QLQLQESGPGLVKPSETLSLTCTVSGGSISSSSYYWGWIRQPPGKGLEWIGSIYYSGSTYYNPSLKSRVTISVDTSKNQFSLKLSSVTAADTAVYYCAREGVITIFGVAQFDYWGQGTLVTVSS
VL: not shown
B7: JN135 (antibody, V domains shown)
VH: QLQLQESGPGLVKPSETLSLTCTVSGGSISSSSYYWGWIRQPPGKGLEWIGSIYYSGSTYYNPSLKSRVTISVDTSKNQFSLKLSSVTAADTAVYYCARLIAATWTFGGVIFNWFDPWGQGTLVTVSS
VL: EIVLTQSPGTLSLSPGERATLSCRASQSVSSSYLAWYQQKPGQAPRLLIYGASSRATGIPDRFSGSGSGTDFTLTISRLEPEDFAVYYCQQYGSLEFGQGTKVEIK
B8: JN229 (antibody, V domains shown)
VH: QVQLVQSGAEVKKPGSSVKVSCKASGGRFSSTAISWVRQAPGQGLEWMGGIIPIFGAPTDVQKFQGRVTITADQSTSTAYMELSNLRSEDTAVYYCATLGNYDFLTGNTFSYFDYWGQGTLVTVSS
VL: NFMLTQPHSVSESLGKTVTISCTRTSGSIASDYVQWYQQRPGSSPTTVIYENFQRPSGVPDRFSASVDSSSNSASLTISGLRAEDEADYYCQSHDRSDFLPVFGGGTQLTVL
B9: JN038 (antibody, V domains shown)
VH: QVQLVQSGAEVKKPGSSVKVSCKASGGRFSSTAISWVRQAPGQGLEWMGGIIPIFGAPTDVQKFQGRVTITADQSTSTAYMELSNLRSEDTAVYYCATLGNYDFLTGNTFSYFDYWGQGTLVTVSS
VL: DIQLTQSPSSLSASVGDRVTITCRAGQSIGNYLNWYQQKPGKAPKVLIYGASSLQSGVPSRFSGSGSGTDFTLTISSLQPEDFASYYCQQSFTTPLTFGGGTKVEIK
B10: JN130 (antibody, V domains shown)
VH: QVQLQESGPGLVKPSQTLSLTCTVSGGSISSGDYYWSWIRQPPGKGLEWIGYIYYSGSTYYNPSLKSRVTISVDTSKNQFSLKLSSVTAADTAVYYCARVLRFYDNIWENYRLPRYFDYWGQGTLVTVSS
VL: QSALTQPRSVSGSPGQSVSISCTGTSSDVGGSEYVSWYQQHPGKAPKLMIYDVNQRPSGVPARFSGSKSGNTASLTISGLQAEDEADYYCCSYAGTYNFEVFGGGTKLSVL
B11: JN106 (antibody, V domains shown)
VH: EVQLVESGGGLVQPGGSLRLSCAASGFTFSENWMSWVRQAPGKGLEWVGNIKQDASEKYFVDSVKGRFTISRDNAKNSLYLQMDSLRAEDTAVYFCARWGYSNSYYYIDCWGQGTLVTVSS
VL: QAVVTQEPSFSVSPGGTVTFTCGLTSGSVSASNHPSWYQQTPGQAPRTLMYGTNIRSSGVPDRFSGSILGNKAALTITGAQADDECDYYCVLYIGDGVWVFGGGTKLTVL
B12: JN144 (antibody, V domains shown)
VH: QVQLVQSGPEVKKPGASVKVSCKASDYTFTSYDIIWVRQAPGQGLEWMGWISTHNGNTNYAQELQGRVTMTRETSTSTAHMELRSLRSDDTAVYYCARGPNRYLRLLEWSIPADWFFDLWGRGTLVTVSS
VL: EIVLTQSPGTLSLSPGDRATLSCRASQSVPSTSIAWYQQKPGQAPRLLFHGAASRAIGIPDRFSGSGSGTDFTLTISRLEPEDSAVYYCQHCGDSPPLLTFGPGTKVDIK
B13: JN142 (antibody, V domains shown)
VH: QVQLVQSGAEVKKPGASVKVSCKASGYTFTSYDINWVRQATGQGLEWMGWMNPNSGNTGYAQKFQGRVTMTRNTSISTAYMELSSLRSEDTAVYYCARVLAPYDYVWGSYRYDNWFDPWGQGTLVTVSS
VL: QSVLTQPPSVSAAPGQKVTISCSGSSSNIGNNYVSWYQQLPGTAPKLLIYDNNKRPSGIPDRFSGSKSGTSATLGITGLQTGDEADYYCGTWDSSLSALFGGGTKLTVL
B14: JN136 (antibody, V domains shown)
VH: QVQLVESGGGVVQPGRSLRLSCAASGFTFSSYAMHWVRQAPGKGLEWVAVISYDGSNKYYADSVKGRFTISRDNSKNTLYLQMNSLRAEDTAVYYCARELAWRGITIFGVVIYNPFDYWGQGTLVTVSS
VL: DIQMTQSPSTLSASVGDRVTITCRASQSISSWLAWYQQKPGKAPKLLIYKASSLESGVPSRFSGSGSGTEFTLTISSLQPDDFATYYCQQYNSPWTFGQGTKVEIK
B15: JN133 (antibody, V domains shown)
VH: QLQLQESGPGLVKPSETLSLTCTVSGGSISSGSNYWGWIRQPPGKGLEWIGTIYYSGATYFSPSLKNRITISVDTSKNQFSLRLSSVIAADTAVYYCARLPFQNYYFYGMDVWGKGTTVTVSS
VL: SYELTQPPSVSVSPGQTARITCSGDVLPKQYAYWYQQKPGQAPVLVISKDSERPSGIPERFSGSSSGTTVTLTISGVQGEDEADYHCQSADSSGTWVFGGGTKLTVL
B16: JN005 (antibody, V domains shown)
VH: QVQLVESGGGLVEPGGSLRLSCAASGFTFSDYFMSWIRQAPGRGLEWVSFITTSGSTIYYADSVKGRFTISRDNAKNSLYLQMNSLRAEDTAVYYCARRSGGYYDILTGPYGLDVWGQGTTVTVSS
VL: not shown
B17: JN236 (antibody, V domains shown)
VH: QVQLQESGPRLVKPSETLSLTCTVSGGSINDYYWSWIRQPPGKGLEYLGYIYYTGTTNYNPSLQSRLTMSVDTSKNQFSLKVNYVSAADTAVYYCARHSTGGSYPLDSWGRGILVTVSS
VL: DIVMTQSPLTLPVTPGEPASISCRSSQSLLHSNGHNYVDWYLQKPGQSPQLLIHLGSNRASGVPDRFSGSGSGTDFTLKISRVEAEDVGVYFCMQALQSRTFGQGTKVEIK
B18: JN140 (antibody, V domains shown)
VH: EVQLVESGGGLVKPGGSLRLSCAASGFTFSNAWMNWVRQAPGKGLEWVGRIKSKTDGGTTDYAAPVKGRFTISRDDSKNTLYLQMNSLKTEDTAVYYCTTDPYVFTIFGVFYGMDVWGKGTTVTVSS
VL: QSALTQPASVSGSPGQSITISCTGTSSDVGSYNLVSWYQQHPGKAPKLMIYEVSKRPSGVSNRFSGSKSGNTASLTISGLQAEDEADYYCCSYAGSSTHHWVFGGGTKLTVL
B19: JN131 (antibody, V domains shown)
VH: EVQLVESGGGLVKPGGSLRLSCAASGFTFNSYSMNWVRQAPGKGLEWVSSISSSSNFIYYADSVKGRFTISRDNAKNSLYLQMNSLRAEDTAMYYCARDPGYRSSWFEVYYFDYWGPGTLVTVSS
VL: QSALTQPASVSGSPGQSITISCTGTSSDVGSYNLVSWYQQHPGKAPKLVIYEVTKRPSGVSNRFSGSKSGNTASLTISGLQAEDEADYYCCSYGGSTTSPYVFGTGTKVTVL
B20: JN226 (antibody, V domains shown)
VH: QVQLVQSGAEVKKPGSSVKVSCKASGGTFSSYAISWVRQAPGQGLEWMGGIIPIFGTANYAQKFQGRVTITADKSTSTAYMELSSLRSEDTAVYYCAMLGAGSPLRGIFGVVMTDGDGMDVWGQGTTVTVSS
VL: QSVLTQPPSVSAAPGQKVTISCSGSSSNIGNNYVSWYQQLPGTAPKLLIYDNNKRPSGIPDRFSGSKSGTSATLGITGLQTGDEADYYCGTWDSSLSAGRVFGGGTKLTVL
B21: JN033 (antibody, V domains shown)
VH: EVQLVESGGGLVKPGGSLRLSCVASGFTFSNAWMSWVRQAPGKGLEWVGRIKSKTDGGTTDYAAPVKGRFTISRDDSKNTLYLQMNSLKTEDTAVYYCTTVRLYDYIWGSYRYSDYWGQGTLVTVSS
VL: DIQLTQSPFSLSASVGDRVTITCRASQGISSYLAWYQQKPGKAPKLLIYAASTLQSGVPSRFSGSGSGTEFTLTISSLQPEDFATYYCQQLNSYPPNTFGPGTKVDIK
B22: JN034 (antibody, V domains shown)
VH: QVQLQESGPGLVEPSQTLSLTCAVSGGSISGGDYYWSWIRQPPGKGLEWIGYIYYSGSTFYNPSLYSRLTISVDTSKNQFSLKLSSVTAADTAVYYCAREGPAIFKIPNGFDIWGQGTMVTVSS
VL: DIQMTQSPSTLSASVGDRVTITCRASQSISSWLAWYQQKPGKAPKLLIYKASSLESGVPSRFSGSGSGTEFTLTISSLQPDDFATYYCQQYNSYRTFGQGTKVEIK
B23: JN225 (antibody, V domains shown)
VH: EVQLVESGGGLVQPGGSLRLSCGASGFTLGSFWMHWVRQAPGKGLEWVGDINGDGSAKYYADSVRGRFTISRDNAENSLFLQMNSLRVEDTALYYCARGAAWLDYWGQGTLVTVSS
VL: QSALTQPASVSGSPGQSITISCTGTSSDVGGYNYVSWYQQHPGKAPKLIIYDVTNRPSGVSNRFSGSKSGNTASLTISGLQAEDEADYFCDSYRSSSPPSYVFGTGTKVTVL
B24: JN145 (antibody, V domains shown)
VH: QVQLVQSGAEVKKPGASVKVSCKASGYTFTSYYMHWVRQAPGQGLEWMGIINPSGGSTSYAQKFQGRVTMTRDTSTSTVYMELSSLRSEDTAVYYCARGESDDYVWGSYRYTNNWFDPWGQGTLVTVSS
VL: not shown

target: SARS-CoV-2 Wuhan-Hu-1 NTD (SARS-CoV-2, UniProt P0DTC2); assay: cell-based or functional assay

For B1, the “neutralisation IC50, WT (293TAce2)” value was greater than 1 µg/mL.

target: SARS-CoV-2 Wuhan-Hu-1 NTD (SARS-CoV-2, UniProt P0DTC2 14-307); assay: cell-based or functional assay

First: B2
Second: B3
The “neutralisation IC50, WT (293TAce2)” value of the first is lower: 0.401 µg/mL for the first, greater than 1 µg/mL for the second.

B4 and B5 cannot be ordered by “neutralisation IC50, WT (293TAce2)” value: greater than 1 µg/mL for the first, greater than 1 µg/mL for the second.

Compared with B6, B7 is lower in “neutralisation IC50, WT (293TAce2)” value: greater than 1 µg/mL for the first, 0.947 µg/mL for the second.

B8 and B9 cannot be ordered by “neutralisation IC50, WT (293TAce2)” value: greater than 1 µg/mL for the first, greater than 1 µg/mL for the second.

B10 and B11 cannot be ordered by “neutralisation IC50, WT (293TAce2)” value: greater than 1 µg/mL for the first, greater than 1 µg/mL for the second.

B12 and B13 cannot be ordered by “neutralisation IC50, WT (293TAce2)” value: greater than 1 µg/mL for the first, greater than 1 µg/mL for the second.

B14 and B15 cannot be ordered by “neutralisation IC50, WT (293TAce2)” value: greater than 1 µg/mL for the first, greater than 1 µg/mL for the second.

B16 and B17 cannot be ordered by “neutralisation IC50, WT (293TAce2)” value: greater than 1 µg/mL for the first, greater than 1 µg/mL for the second.

B18 and B19 cannot be ordered by “neutralisation IC50, WT (293TAce2)” value: greater than 1 µg/mL for the first, greater than 1 µg/mL for the second.

B20 and B21 cannot be ordered by “neutralisation IC50, WT (293TAce2)” value: greater than 1 µg/mL for the first, greater than 1 µg/mL for the second.

B22 and B23 cannot be ordered by “neutralisation IC50, WT (293TAce2)” value: greater than 1 µg/mL for the first, greater than 1 µg/mL for the second.

For B24, the “neutralisation IC50, WT (293TAce2)” value was 0.688 µg/mL.
